Data: US20200079833A1 (AstraZeneca / MedImmune, published 2020)
Starred links: 1 amine or outer side, 2 acyl side, 3 side chain; linkers in the order of their positions; H or OH if unused. Non-standard residues stand in square brackets, D forms with d. Groups on a side chain read outwards from the residue. Primed or numbered codes have the meaning given here. No end group written: not given here. *: point of attachment. γGlu = O=C(O)[C@H](CCC(=O)[*:2])N[*:1]; Stearoyl = CCCCCCCCCCCCCCCCCC(=O)*; Palmitoyl = CCCCCCCCCCCCCCCC(=O)*; αMeF = C[C@](N)(Cc1ccccc1)C(=O)O; αMeK = C[C@](N)(CCCCN)C(=O)O; αMeS = C[C@](N)(CO)C(=O)O; PEG2′ = not defined here; Aib = CC(C)(N)C(=O)O

T1: glucose-dependent insulinotropic peptide (gastric inhibitory polypeptide) receptor (GIPR) (human, UniProt P48546 22-466)
T1 sequence (looked up): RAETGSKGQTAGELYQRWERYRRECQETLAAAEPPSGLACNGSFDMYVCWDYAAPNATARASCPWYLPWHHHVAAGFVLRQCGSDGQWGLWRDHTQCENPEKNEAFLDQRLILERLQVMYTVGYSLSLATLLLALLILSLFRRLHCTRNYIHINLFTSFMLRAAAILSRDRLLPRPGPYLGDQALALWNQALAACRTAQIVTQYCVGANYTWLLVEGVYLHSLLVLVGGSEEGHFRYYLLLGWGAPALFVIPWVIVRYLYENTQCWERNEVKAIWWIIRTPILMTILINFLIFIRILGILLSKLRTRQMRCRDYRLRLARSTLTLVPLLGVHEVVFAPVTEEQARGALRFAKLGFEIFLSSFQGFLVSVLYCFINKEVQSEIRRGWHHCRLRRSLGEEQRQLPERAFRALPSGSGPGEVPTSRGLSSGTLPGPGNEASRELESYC

B1: SEQ ID NO 95 (peptide)
peptide: H[Aib]EGK([γGlu-Palmitoyl])[αMeF]TSDV[αMeS]S[αMeF]LEGEAA[αMeK]E[αMeF]IA[αMeF]VV[αMeK]GG-NH2
modifications: N-terminus assumed
SMILES: CCCCCCCCCCCCCCCC(=O)N[C@@H](CCC(=O)NCCCC[C@H](NC(=O)CNC(=O)[C@H](CCC(=O)O)NC(=O)C(C)(C)NC(=O)[C@@H](N)Cc1c[nH]cn1)C(=O)N[C@@](C)(Cc1ccccc1)C(=O)N[C@H](C(=O)N[C@@H](CO)C(=O)N[C@@H](CC(=O)O)C(=O)N[C@H](C(=O)N[C@@](C)(CO)C(=O)N[C@@H](CO)C(=O)N[C@@](C)(Cc1ccccc1)C(=O)N[C@@H](CC(C)C)C(=O)N[C@@H](CCC(=O)O)C(=O)NCC(=O)N[C@@H](CCC(=O)O)C(=O)N[C@@H](C)C(=O)N[C@@H](C)C(=O)N[C@@](C)(CCCCN)C(=O)N[C@@H](CCC(=O)O)C(=O)N[C@@](C)(Cc1ccccc1)C(=O)N[C@H](C(=O)N[C@@H](C)C(=O)N[C@@](C)(Cc1ccccc1)C(=O)N[C@H](C(=O)N[C@H](C(=O)N[C@@](C)(CCCCN)C(=O)NCC(=O)NCC(N)=O)C(C)C)C(C)C)[C@@H](C)CC)C(C)C)[C@@H](C)O)C(=O)O
B2: SEQ ID NO 94 (peptide)
peptide: H[Aib]EGSK([γGlu-Palmitoyl])TSDV[αMeS]S[αMeF]LEGEAA[αMeK]E[αMeF]IA[αMeF]VV[αMeK]GG-NH2
modifications: N-terminus assumed
SMILES: CCCCCCCCCCCCCCCC(=O)N[C@@H](CCC(=O)NCCCC[C@H](NC(=O)[C@H](CO)NC(=O)CNC(=O)[C@H](CCC(=O)O)NC(=O)C(C)(C)NC(=O)[C@@H](N)Cc1c[nH]cn1)C(=O)N[C@H](C(=O)N[C@@H](CO)C(=O)N[C@@H](CC(=O)O)C(=O)N[C@H](C(=O)N[C@@](C)(CO)C(=O)N[C@@H](CO)C(=O)N[C@@](C)(Cc1ccccc1)C(=O)N[C@@H](CC(C)C)C(=O)N[C@@H](CCC(=O)O)C(=O)NCC(=O)N[C@@H](CCC(=O)O)C(=O)N[C@@H](C)C(=O)N[C@@H](C)C(=O)N[C@@](C)(CCCCN)C(=O)N[C@@H](CCC(=O)O)C(=O)N[C@@](C)(Cc1ccccc1)C(=O)N[C@H](C(=O)N[C@@H](C)C(=O)N[C@@](C)(Cc1ccccc1)C(=O)N[C@H](C(=O)N[C@H](C(=O)N[C@@](C)(CCCCN)C(=O)NCC(=O)NCC(N)=O)C(C)C)C(C)C)[C@@H](C)CC)C(C)C)[C@@H](C)O)C(=O)O
B3: SEQ ID NO 96 (peptide)
peptide: H[Aib]EK([γGlu-Palmitoyl])S[αMeF]TSDV[αMeS]S[αMeF]LEGEAA[αMeK]E[αMeF]IA[αMeF]VV[αMeK]GG-NH2
modifications: N-terminus assumed
SMILES: CCCCCCCCCCCCCCCC(=O)N[C@@H](CCC(=O)NCCCC[C@H](NC(=O)[C@H](CCC(=O)O)NC(=O)C(C)(C)NC(=O)[C@@H](N)Cc1c[nH]cn1)C(=O)N[C@@H](CO)C(=O)N[C@@](C)(Cc1ccccc1)C(=O)N[C@H](C(=O)N[C@@H](CO)C(=O)N[C@@H](CC(=O)O)C(=O)N[C@H](C(=O)N[C@@](C)(CO)C(=O)N[C@@H](CO)C(=O)N[C@@](C)(Cc1ccccc1)C(=O)N[C@@H](CC(C)C)C(=O)N[C@@H](CCC(=O)O)C(=O)NCC(=O)N[C@@H](CCC(=O)O)C(=O)N[C@@H](C)C(=O)N[C@@H](C)C(=O)N[C@@](C)(CCCCN)C(=O)N[C@@H](CCC(=O)O)C(=O)N[C@@](C)(Cc1ccccc1)C(=O)N[C@H](C(=O)N[C@@H](C)C(=O)N[C@@](C)(Cc1ccccc1)C(=O)N[C@H](C(=O)N[C@H](C(=O)N[C@@](C)(CCCCN)C(=O)NCC(=O)NCC(N)=O)C(C)C)C(C)C)[C@@H](C)CC)C(C)C)[C@@H](C)O)C(=O)O
B4: SEQ ID NO 99 (peptide)
peptide: H[Aib]EGS[αMeF]TSDV[αMeS]S[αMeF]LEGEAA[αMeK]E[αMeF]IA[αMeF]VV[αMeK]GK([PEG2′-PEG2′-γGlu-Stearoyl])-NH2
B5: SEQ ID NO 97 (peptide)
peptide: H[Aib]K([γGlu-Palmitoyl])GS[αMeF]TSDV[αMeS]S[αMeF]LEGEAA[αMeK]E[αMeF]IA[αMeF]VV[αMeK]GG-NH2
modifications: N-terminus assumed
SMILES: CCCCCCCCCCCCCCCC(=O)N[C@@H](CCC(=O)NCCCC[C@H](NC(=O)C(C)(C)NC(=O)[C@@H](N)Cc1c[nH]cn1)C(=O)NCC(=O)N[C@@H](CO)C(=O)N[C@@](C)(Cc1ccccc1)C(=O)N[C@H](C(=O)N[C@@H](CO)C(=O)N[C@@H](CC(=O)O)C(=O)N[C@H](C(=O)N[C@@](C)(CO)C(=O)N[C@@H](CO)C(=O)N[C@@](C)(Cc1ccccc1)C(=O)N[C@@H](CC(C)C)C(=O)N[C@@H](CCC(=O)O)C(=O)NCC(=O)N[C@@H](CCC(=O)O)C(=O)N[C@@H](C)C(=O)N[C@@H](C)C(=O)N[C@@](C)(CCCCN)C(=O)N[C@@H](CCC(=O)O)C(=O)N[C@@](C)(Cc1ccccc1)C(=O)N[C@H](C(=O)N[C@@H](C)C(=O)N[C@@](C)(Cc1ccccc1)C(=O)N[C@H](C(=O)N[C@H](C(=O)N[C@@](C)(CCCCN)C(=O)NCC(=O)NCC(N)=O)C(C)C)C(C)C)[C@@H](C)CC)C(C)C)[C@@H](C)O)C(=O)O
B6: SEQ ID NO 98 (peptide)
peptide: HK([γGlu-Palmitoyl])EGS[αMeF]TSDV[αMeS]S[αMeF]LEGEAA[αMeK]E[αMeF]IA[αMeF]VV[αMeK]GG-NH2
B7: SEQ ID NO 93 (peptide)
peptide: H[Aib]EGS[αMeF]K([γGlu-Palmitoyl])SDV[αMeS]S[αMeF]LEGEAA[αMeK]E[αMeF]IA[αMeF]VV[αMeK]GG-NH2
modifications: N-terminus assumed
SMILES: CCCCCCCCCCCCCCCC(=O)N[C@@H](CCC(=O)NCCCC[C@H](NC(=O)[C@](C)(Cc1ccccc1)NC(=O)[C@H](CO)NC(=O)CNC(=O)[C@H](CCC(=O)O)NC(=O)C(C)(C)NC(=O)[C@@H](N)Cc1c[nH]cn1)C(=O)N[C@@H](CO)C(=O)N[C@@H](CC(=O)O)C(=O)N[C@H](C(=O)N[C@@](C)(CO)C(=O)N[C@@H](CO)C(=O)N[C@@](C)(Cc1ccccc1)C(=O)N[C@@H](CC(C)C)C(=O)N[C@@H](CCC(=O)O)C(=O)NCC(=O)N[C@@H](CCC(=O)O)C(=O)N[C@@H](C)C(=O)N[C@@H](C)C(=O)N[C@@](C)(CCCCN)C(=O)N[C@@H](CCC(=O)O)C(=O)N[C@@](C)(Cc1ccccc1)C(=O)N[C@H](C(=O)N[C@@H](C)C(=O)N[C@@](C)(Cc1ccccc1)C(=O)N[C@H](C(=O)N[C@H](C(=O)N[C@@](C)(CCCCN)C(=O)NCC(=O)NCC(N)=O)C(C)C)C(C)C)[C@@H](C)CC)C(C)C)C(=O)O
B8: SEQ ID NO 100 (peptide)
peptide: H[Aib]EGS[αMeF]TSDV[αMeS]S[αMeF]LEGEAA[αMeK]E[αMeF]IA[αMeF]VV[αMeK]K([PEG2′-PEG2′-γGlu-Stearoyl])G-NH2

The binders below were run against T1, glucose-dependent insulinotropic … (assay: cell-based or functional assay).

| Binder | cAMP Primary assay EC50 GIP-R [nM] | cAMP Primary assay EC50 GIP-R (2nd) [nM] |
| --- | --- | --- |
| B1 | 28 | 28 |
| B2 | 28 | 28 |
| B3 | 27 | 27 |
| B4 | 25 | 24.9 |
| B5 | 28 | 28 |
| B6 | 28 | 28 |
| B7 | 28 | 28 |
| B8 | 25 | 24.9 |

What follows are binders tested against GLP-1 receptor (GLP-1R) (human, UniProt P43220 24-463) (assay: cell-based or functional assay).

| Binder | cAMP Mean pM GLP-1R [pM] | cAMP Primary assay EC50 GLP-1R n1 [pM] | cAMP Primary assay EC50 GLP-1R n2 [pM] |
| --- | --- | --- | --- |
| B1 | 224 | 260 | 190 |
| B2 | 228 | 140 | 320 |
| B3 | 746 | 920 | 570 |
| B4 | 54 | 58 | 49.3 |
| B5 | 27800 | 28000 | 28000 |
| B6 | 27500 | 28000 | 28000 |
| B7 | 27600 | 28000 | 28000 |
| B8 | 15 | 16 | 14.6 |

What follows are binders tested against glucagon receptor (GCGR) (human, UniProt P47871 26-477) (assay: cell-based or functional assay).
Sequence of glucagon receptor (GCGR) (P47871 26-477): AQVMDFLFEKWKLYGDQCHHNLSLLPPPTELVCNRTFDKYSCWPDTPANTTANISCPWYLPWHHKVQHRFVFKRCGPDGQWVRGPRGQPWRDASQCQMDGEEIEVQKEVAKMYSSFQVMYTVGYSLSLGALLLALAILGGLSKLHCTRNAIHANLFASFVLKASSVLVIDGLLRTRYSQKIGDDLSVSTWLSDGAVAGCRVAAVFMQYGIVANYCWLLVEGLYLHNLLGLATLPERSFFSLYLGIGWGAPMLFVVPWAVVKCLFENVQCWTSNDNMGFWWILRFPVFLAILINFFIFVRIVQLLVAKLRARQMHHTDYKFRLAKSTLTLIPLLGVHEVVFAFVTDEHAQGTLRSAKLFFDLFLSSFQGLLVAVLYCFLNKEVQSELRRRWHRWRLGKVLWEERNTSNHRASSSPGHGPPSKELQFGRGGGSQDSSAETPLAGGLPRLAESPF

| Binder | cAMP Primary assay EC50 Gluc-R [nM] | cAMP Primary assay EC50 Gluc-R (2nd) [nM] |
| --- | --- | --- |
| B1 | 28 | 28 |
| B2 | 28 | 28 |
| B3 | 27 | 27 |
| B4 | 25 | 24.9 |
| B5 | 28 | 28 |
| B6 | 28 | 28 |
| B7 | 28 | 28 |
| B8 | 25 | 24.9 |
